Measurements from paper PMC6614797.
Read-outs that look alike come from different tables or passages of the source.

Assays:
Assay in all cases: analytical size exclusion chromatography
SuhB [1] = target: T1, SuhB (Escherichia coli, UniProt P0ADG4 1-267)
[2] = target: NusB;NusEdelta (S10 lacking the ribosome binding loop) (Escherichia coli;Escherichia coli, UniProt P0A780;P0A7R5 1-139;1-45+68-103, |internal_change)
[3] = target: RNA polymerase;NusA;NusB;NusEdelta (S10 lacking the ribosome binding loop);NusG;SuhB (Escherichia coli;Escherichia …, UniProt P0A7Z4;P0A8V2;P0A8T7;P0A800;P0AFF6;P0A780;P0A7R5;P0AFG0;P0ADG4 …, |||internal_change||)
SuhB [4] = target: T1, SuhB; remark: listed apart in the source

B1: rrnG RNA (structured_RNA)
RNA: GGGCCGCGCCGCUGAGAAAAAGCGAAGCGGCACUGCUCUUUAACAAUUUAUCAGACAAUCUGUGUGGG
binding result (SuhB [1]): binds
binding result [2]: binds

B2: rrnG-EC scaffold (T-DNA, NT-DNA, rrnG RNA) (mixed)
DNA 1: ATCCGTATCTTCGAGTGCCCACACAGATTGTCTCATAAATTGTTAAAGAGCAGTGCCGC
DNA 2: GCGGCACTGCTCTTTAACAATTTATCAGACTTGTCCACGCTCGTCTCGAAGATACGGAT
RNA: B1 RNA
binding result [3]: binds

UUUUUGAGUCUGCGGCGCGCG (ssRNA) [random RNA]
binding result (SuhB [4]): no binding
